Consider one molecule from patent US20250263476A1 (ARGENX, published 2025).

Assay [1] concerns the target T1, cynomolgus monkey C2 (cynomolgus monkey, UniProt G8F3W0 21-752).
T1 sequence: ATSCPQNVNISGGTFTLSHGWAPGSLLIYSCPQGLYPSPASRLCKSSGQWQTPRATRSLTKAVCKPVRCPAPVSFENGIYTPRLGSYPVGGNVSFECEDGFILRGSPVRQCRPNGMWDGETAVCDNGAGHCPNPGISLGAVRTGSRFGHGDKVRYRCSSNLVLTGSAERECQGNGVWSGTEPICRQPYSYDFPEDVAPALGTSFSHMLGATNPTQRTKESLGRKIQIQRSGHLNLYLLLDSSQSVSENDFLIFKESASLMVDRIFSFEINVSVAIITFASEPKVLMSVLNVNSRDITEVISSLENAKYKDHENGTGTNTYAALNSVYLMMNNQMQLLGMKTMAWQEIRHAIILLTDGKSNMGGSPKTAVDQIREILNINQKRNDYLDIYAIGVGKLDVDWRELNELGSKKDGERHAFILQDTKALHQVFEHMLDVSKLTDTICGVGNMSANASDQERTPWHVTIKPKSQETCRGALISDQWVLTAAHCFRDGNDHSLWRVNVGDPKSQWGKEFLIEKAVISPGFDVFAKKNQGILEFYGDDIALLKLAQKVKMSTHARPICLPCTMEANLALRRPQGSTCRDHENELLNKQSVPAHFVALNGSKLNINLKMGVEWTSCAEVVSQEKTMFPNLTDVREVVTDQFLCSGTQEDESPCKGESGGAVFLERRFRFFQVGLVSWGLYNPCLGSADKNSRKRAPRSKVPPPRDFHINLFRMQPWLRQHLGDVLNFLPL
The assay can be described thus: method not described; binding stated to be pH- and Ca2+-dependent; lower end of the printed range for cynomolgus C2; pH/Ca2+ condition not stated.

Assay [2] addresses T2, human complement component 2 (C2) (human, UniProt P06681 21-752, limits assumed).
T2 construct: also called human C2
T2 sequence (looked up): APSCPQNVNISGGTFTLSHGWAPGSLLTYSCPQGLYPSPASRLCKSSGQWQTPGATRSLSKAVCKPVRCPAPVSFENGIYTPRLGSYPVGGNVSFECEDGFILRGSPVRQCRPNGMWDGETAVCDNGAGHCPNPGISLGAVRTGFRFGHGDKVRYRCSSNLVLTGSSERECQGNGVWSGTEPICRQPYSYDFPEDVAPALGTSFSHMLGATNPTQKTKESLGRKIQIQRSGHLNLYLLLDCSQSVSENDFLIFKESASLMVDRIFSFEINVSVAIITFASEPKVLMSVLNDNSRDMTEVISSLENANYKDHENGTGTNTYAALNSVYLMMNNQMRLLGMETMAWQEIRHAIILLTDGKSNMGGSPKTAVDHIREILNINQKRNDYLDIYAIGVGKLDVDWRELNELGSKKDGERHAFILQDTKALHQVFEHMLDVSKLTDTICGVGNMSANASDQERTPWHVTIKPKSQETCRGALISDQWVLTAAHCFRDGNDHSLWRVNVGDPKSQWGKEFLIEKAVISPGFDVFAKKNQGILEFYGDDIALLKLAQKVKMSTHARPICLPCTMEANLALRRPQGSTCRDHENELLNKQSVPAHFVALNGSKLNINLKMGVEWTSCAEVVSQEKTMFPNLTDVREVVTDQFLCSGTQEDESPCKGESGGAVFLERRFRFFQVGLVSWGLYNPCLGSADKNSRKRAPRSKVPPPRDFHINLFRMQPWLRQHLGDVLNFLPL
Kind of assay: method not described; binding stated to be pH- and Ca2+-dependent; lower end of the printed range for human C2; pH/Ca2+ condition not stated.

Assay [3] concerns the target T3, C2 from mouse (mouse, UniProt P21180 19-760, limits assumed).
T3 sequence (looked up): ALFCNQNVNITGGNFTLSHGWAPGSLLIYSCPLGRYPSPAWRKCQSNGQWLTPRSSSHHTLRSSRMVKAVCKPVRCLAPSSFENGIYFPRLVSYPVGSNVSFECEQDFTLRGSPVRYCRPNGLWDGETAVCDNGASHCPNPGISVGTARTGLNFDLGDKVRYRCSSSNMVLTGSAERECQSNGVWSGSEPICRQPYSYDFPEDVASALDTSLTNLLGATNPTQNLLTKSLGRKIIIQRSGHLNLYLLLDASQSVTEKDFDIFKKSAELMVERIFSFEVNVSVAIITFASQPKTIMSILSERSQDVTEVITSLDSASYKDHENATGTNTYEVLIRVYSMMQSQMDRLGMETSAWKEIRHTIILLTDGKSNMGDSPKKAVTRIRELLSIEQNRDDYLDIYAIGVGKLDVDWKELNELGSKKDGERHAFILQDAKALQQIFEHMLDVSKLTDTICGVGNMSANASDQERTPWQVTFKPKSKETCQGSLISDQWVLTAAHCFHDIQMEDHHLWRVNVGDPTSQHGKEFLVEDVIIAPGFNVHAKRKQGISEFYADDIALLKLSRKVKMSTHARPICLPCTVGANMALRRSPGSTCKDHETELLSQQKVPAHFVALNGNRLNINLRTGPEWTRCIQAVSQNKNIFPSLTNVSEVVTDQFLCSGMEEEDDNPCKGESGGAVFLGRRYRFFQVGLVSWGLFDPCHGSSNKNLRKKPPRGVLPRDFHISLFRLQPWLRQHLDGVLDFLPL
Kind of assay: not described.

Assay [4] deals with T4, C2 from rat (rat, UniProt Q8CIP8 19-758).
T4 sequence: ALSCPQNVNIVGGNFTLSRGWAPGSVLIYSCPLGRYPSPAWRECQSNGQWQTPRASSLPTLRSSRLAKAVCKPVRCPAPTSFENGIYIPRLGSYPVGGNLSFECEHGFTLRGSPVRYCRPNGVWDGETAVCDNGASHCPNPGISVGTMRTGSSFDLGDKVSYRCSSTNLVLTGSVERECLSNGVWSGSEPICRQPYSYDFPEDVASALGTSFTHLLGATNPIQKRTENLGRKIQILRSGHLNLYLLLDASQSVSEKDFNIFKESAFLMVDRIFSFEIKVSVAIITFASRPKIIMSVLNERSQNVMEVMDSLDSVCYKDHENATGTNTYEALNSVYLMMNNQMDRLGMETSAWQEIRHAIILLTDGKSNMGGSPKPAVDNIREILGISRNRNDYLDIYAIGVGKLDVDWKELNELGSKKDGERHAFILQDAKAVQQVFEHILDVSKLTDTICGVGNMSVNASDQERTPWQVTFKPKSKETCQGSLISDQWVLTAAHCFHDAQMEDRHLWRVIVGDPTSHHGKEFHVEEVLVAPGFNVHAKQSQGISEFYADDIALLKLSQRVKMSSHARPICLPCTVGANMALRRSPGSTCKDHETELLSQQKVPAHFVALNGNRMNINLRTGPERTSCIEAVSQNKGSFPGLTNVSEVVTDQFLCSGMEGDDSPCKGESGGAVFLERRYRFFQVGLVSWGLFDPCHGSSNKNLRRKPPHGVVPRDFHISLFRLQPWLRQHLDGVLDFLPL
The assay can be described thus: not described.

The target of assay [5] is T5, C2 from rabbit (rabbit, UniProt G1SS66 21-744).
T5 sequence: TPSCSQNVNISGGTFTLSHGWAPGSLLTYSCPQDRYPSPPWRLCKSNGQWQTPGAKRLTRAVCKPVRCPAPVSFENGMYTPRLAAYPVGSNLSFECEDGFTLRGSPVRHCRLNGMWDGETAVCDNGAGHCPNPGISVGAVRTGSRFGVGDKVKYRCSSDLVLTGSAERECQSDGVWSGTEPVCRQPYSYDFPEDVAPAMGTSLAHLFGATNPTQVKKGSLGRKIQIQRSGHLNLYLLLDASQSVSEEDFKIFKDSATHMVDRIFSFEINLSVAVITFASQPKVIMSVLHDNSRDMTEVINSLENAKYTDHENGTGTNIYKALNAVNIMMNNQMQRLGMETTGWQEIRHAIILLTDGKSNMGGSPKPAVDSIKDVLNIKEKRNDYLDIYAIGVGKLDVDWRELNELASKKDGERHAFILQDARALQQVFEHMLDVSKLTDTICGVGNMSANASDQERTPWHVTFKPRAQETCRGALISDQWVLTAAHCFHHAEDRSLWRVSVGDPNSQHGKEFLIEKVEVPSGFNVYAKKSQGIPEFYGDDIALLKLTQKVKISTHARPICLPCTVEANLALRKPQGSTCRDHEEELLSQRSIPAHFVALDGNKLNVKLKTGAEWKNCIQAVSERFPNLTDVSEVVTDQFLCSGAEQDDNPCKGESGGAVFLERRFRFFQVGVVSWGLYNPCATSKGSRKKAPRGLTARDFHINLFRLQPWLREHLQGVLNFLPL
Kind of assay: not described.

B1: ARGX-117 (antibody, human IgG1, kappa, L234A L235A, V domains shown)
VH: EVQLVQSGAEVKKPGASVKVSCKASGYTFTDYNMDWVRQATGQGLEWIGDINPNYESTGYNQKFKGRATMTVDKSISTAYMELSSLRSEDTAVYYCAREDDHDAFAYWGQGTLVTVSS
VL: DNVLTQSPDSLAVSLGERATISCRASKSVRTSGYNYMHWYQQKPGQPPKLLIYLASNLKSGVPDRFSGSGSGTDFTLTISSLQAEDAATYYCQHSRELPYTFGQGTKLEIKR
notes: also called anti-C2 antibody
Usually Kd stands for the constant that tells how readily two partners part at equilibrium. For B1, the results for the Kd in assay [1] and in assay [2] were 0.056 to 0.13 nM and 0.109 to 2.02 nM, respectively. For the same molecule, the binding result in assay [3], in assay [4] and in assay [5] was “no binding” in each case.
